Results as given in publication PMC9989938 (Immunity, 2023).

B1: 230AS-73 scFv (scFv, V domains shown)
VH: QVQLQQWGAGLLKPSETLSLTCAVSGASFSGYSWTWIRQSPGKGLEWIGEIDYRGSTNYNPSLKSRVTMSVDTPKNQFSLNLTSLTAADTAIYYCAKGYGGVTLVRGAKINWFDPWGQGTLVTVSS
VL: EIVLTQSPGTLSLSPGERATLSCRASQSVTSRYLAWYQQKPGQAPRLLIFGASSRATGIPDRFSGSGSGTDFTLTISRLEPEDFAVYFCQQYAKSPWTFGQGTKVEIK
B2: 230AL-37 IgG (antibody, V domains shown)
VH: QVQLVESGGGVVQPGGSLRLSCTASGLIFNKYGIYWVRQAPGKGLEWVAFIRYDGTNQFYADSVKGRFTISRDNSKNKVYLQMNSLRAEDTALYYCAKDRGSIIVFDHWGQGTLVTVSS
VL: EIVLTQSPATLSLSPGERVTLSCRASQAVGIYLAWYQQKPGQAPRLLIYHVSKRDTGVPDRFSGSGSGTDFTLTISSLEPEDFAVYYCQQHRNWPPITFGQGTRLEIK
B3: 230AL-37 scFv (scFv, V domains shown)
VH: B2 VH
VL: B2 VL

How the values were obtained:
[1] = target: Pfs230D1D2 (first two 6-Cys domains of Pfs230), 6xHis (Plasmodium falciparum 3D7, UniProt P68874); assay: crystal structure
Biotinylated Pfs230D1 = Biotinylated Pfs230D1 (Plasmodium falciparum 3D7, UniProt P68874, biotin (site not stated)); assay: BLI
[2] = target: Pfs230D1 D714N variant, 6xHis, from Expi293 cells (P. falciparum, UniProt P68874); assay: BLI
[3] = target: Pfs230D1 G605S variant, 6xHis, from Expi293 cells (P. falciparum, UniProt P68874, G605S); assay: BLI
[4] = target: Pfs230 domain 1 (Pfs230D1), wild-type, 6xHis, from Expi293 cells (P. falciparum, UniProt P68874); assay: BLI
[5] = target: Pfs230D1 G605R variant, 6xHis, from Expi293 cells (P. falciparum, UniProt P68874, G605R); assay: BLI

Row | Binder | binding result [1] | binding result (Biotinylated Pfs230D1) | Kd [2] | koff [2] | kon [2] | Kd [3] | koff [3] | kon [3] | Kd [4] | koff [4] | kon [4] | Kd [5] | koff [5] | kon [5]
1 | B1 | binds | binds | – | – | – | – | – | – | – | – | – | – | – | –
2 | B2 | – | – | 15 nM | 0.00422 s⁻¹ | 291000 M⁻¹ s⁻¹ | 0.65 nM | 0.000147 s⁻¹ | 214000 M⁻¹ s⁻¹ | 0.34 nM | 0.000181 s⁻¹ | 538000 M⁻¹ s⁻¹ | 5.01 nM | 0.000426 s⁻¹ | 85100 M⁻¹ s⁻¹
3 | B3 | binds | – | – | – | – | – | – | – | – | – | – | – | – | –
